Read-outs that look alike come from different tables or passages of the source.
How the values were obtained:
[1] = test system: Staphylococcus aureus; test: Daptomycin MIC with […], positive control (Table 10); assay type: cell-based; conditions: for fold increase in MIC with SURVANTA: Staphylococcus aureus
Procedure: As a positive control, the impact of […] ® on daptomycin (DAP) activity against Staphylococcus aureus was also tested.

[2] = test system: Pseudomonas aeruginosa strain CFS-1292 (meropenem resistant); conditions: for Fold Increase (MIC) in presence of cations: CFS-1292
Procedure: The activity of selected GN lysins and constructs in the presence of divalent cations was evaluated, and the impact of divalent cations at physiological concentrations was examined in the MIC assay format.

[3] = test system: P. aeruginosa isolate CFS-1292; test: MIC in CAA supplemented with a range of […] concentrations (Table 10); assay type: cell-based, Pseudomonas aeruginosa
[4] = test system: carbapenem-resistant P. aeruginosa strains; test: Resensitization of carbapenem-resistant strains, combinations with imipenem or meropenem (Tables 18-22); assay type: cell-based, Pseudomonas aeruginosa
Procedure: Such resensitization may be determined by combining the present lysins or lysin-AMP polypeptide constructs with an antibiotic in a checkerboard assay as described herein. Antibiotic-resistant bacteria, such as carbapenem-resistant P. aeruginosa, are added to the lysin or lysin-AMP polypeptide construct combination. […] See Clinical and Laboratory Standards Institute (CLSI), CLSI. […] M100 Performance Standards for Antimicrobial Susceptibility Testing; 29th Edition. Clinical and Laboratory Standards Institute, Wayne, Pa., which is herein incorporated by reference in its entirety.
Up to seven carbapenem-resistant isolates were assessed. […] See Clinical and Laboratory Standards Institute (CLSI), CLSI. […] M100 Performance Standards for Antimicrobial Susceptibility Testing; 29th Edition. Clinical and Laboratory Standards Institute, Wayne, Pa.

daptomycin
fold increase in MIC with SURVANTA ([1]; 0.09% SURVANTA): 32 fold
fold increase in MIC with SURVANTA ([1]; 0.19% SURVANTA): 32 fold
fold increase in MIC with SURVANTA ([1]; 1.56% SURVANTA): 128 fold
fold increase in MIC with SURVANTA ([1]; 3.15% SURVANTA): 128 fold
inhibition by pulmonary surfactant ([1]; SURVANTA 0.09-[…], S. aureus): inhibitory to the activity of DAP

B1: GN123: lysin obtained from Pseudomonas phage PhiPA3 (SEQ ID NO: 173) (protein)
chain: MTLLKKGDKGDAVKQLQQKLKDLGYTLGVDGNFGNGTDTVVRSFQTKMKLSVDGVVGNGTMSTIDSTLAGIKAWKTSVPFPATNKSRAMAMPTLTEIGRLTNVDPKLLATFCSIESAFDYTAKPYKPDGTVYSSAEGWFQFLDATWDDEVRKHGKQYSFPVDPGRSLRKDPRANGLMGAEFLKGNAAILRPVLGHEPSDTDLYLAHFMGAGGAKQFLMADQNKLAAELFPGPAKANPNIFYKSGNIARTLAEVYAVLDAKVAKHRA
modifications: Pseudomonas phage PhiPA3
Fold Increase (MIC) in presence of cations ([2]; 25% CAA + […] CaCl2 (high)): 1 fold
Fold Increase (MIC) in presence of cations ([2]; 25% CAA + […] CaCl2 (low)): 1 fold
Fold Increase (MIC) in presence of cations ([2]; 25% CAA + […] CaCl2 (medium)): 1 fold
Fold Increase (MIC) in presence of cations ([2]; 25% CAA + […] CaCl2 and […] MgCl2): 1 fold
Fold Increase (MIC) in presence of cations ([2]; 25% CAA + […] MgCl2 (high)): 1 fold
Fold Increase (MIC) in presence of cations ([2]; 25% CAA + […] MgCl2 (low)): 1 fold
Fold Increase (MIC) in presence of cations ([2]; 25% CAA + […] MgCl2 (medium)): 1 fold
MIC in 25% CAA ([2]; strain CFS-1292, no added cations): 2 µg/mL
fold increase in MIC with SURVANTA ([3]; 0.09% SURVANTA): 1 fold
fold increase in MIC with SURVANTA ([3]; 0.19% SURVANTA): 1 fold
fold increase in MIC with SURVANTA ([3]; 1.56% SURVANTA): 1 fold
fold increase in MIC with SURVANTA ([3]; 3.15% SURVANTA): 2 fold
resensitization to carbapenems in synergistic combinations ([4]; imipenem (IPM) and meropenem (MEM), carbapenem-resistant isolates): reductions of IPM and MEM MICS to below breakpoint values
lysin MIC, Combination ([4]; in combination with imipenem, isolate PA19): 0.125 µg/mL
lysin MIC, Combination ([4]; in combination with imipenem, isolate PA20): 2 µg/mL
lysin MIC, Combination ([4]; in combination with imipenem, isolate PA21): 1 µg/mL
lysin MIC, Combination ([4]; in combination with imipenem, isolate PA22): 1 µg/mL
lysin MIC, Combination ([4]; in combination with imipenem, isolate PA23): 2 µg/mL
lysin MIC, Combination ([4]; in combination with imipenem, isolate PA24): 2 µg/mL
lysin MIC, Combination ([4]; in combination with imipenem, isolate WC-452): 2 µg/mL
lysin MIC, Combination ([4]; in combination with meropenem, isolate PA19): 0.25 µg/mL
lysin MIC, Combination ([4]; in combination with meropenem, isolate PA20): 1 µg/mL
lysin MIC, Combination ([4]; in combination with meropenem, isolate PA21): 1 µg/mL
lysin MIC, Combination ([4]; in combination with meropenem, isolate PA22): 1 µg/mL
lysin MIC, Combination ([4]; in combination with meropenem, isolate PA23): 1 µg/mL
lysin MIC, Combination ([4]; in combination with meropenem, isolate PA24): 0.5 µg/mL
lysin MIC, Combination ([4]; in combination with meropenem, isolate WC-452): 1 µg/mL
MIC, Alone ([4]; isolate PA19): 8 µg/mL
MIC, Alone ([4]; isolate PA20): 16 µg/mL
MIC, Alone ([4]; isolate PA21): 8 µg/mL
MIC, Alone ([4]; isolate PA22): 16 µg/mL
MIC, Alone ([4]; isolate PA23): 8 µg/mL
MIC, Alone ([4]; isolate PA24): 16 µg/mL
MIC, Alone ([4]; isolate WC-452): 16 µg/mL
FICI ([4]; lysin + imipenem, isolate PA19): 0.03
FICI ([4]; lysin + imipenem, isolate PA20): 0.188
FICI ([4]; lysin + imipenem, isolate PA21): 0.141
FICI ([4]; lysin + imipenem, isolate PA22): 0.188
FICI ([4]; lysin + imipenem, isolate PA23): 0.281
FICI ([4]; lysin + imipenem, isolate PA24): 0.188
FICI ([4]; lysin + imipenem, isolate WC-452): 0.188
FICI ([4]; lysin + meropenem, isolate PA19): 0.046
FICI ([4]; lysin + meropenem, isolate PA20): 0.094
FICI ([4]; lysin + meropenem, isolate PA21): 0.156
FICI ([4]; lysin + meropenem, isolate PA22): 0.125
FICI ([4]; lysin + meropenem, isolate PA23): 0.156
FICI ([4]; lysin + meropenem, isolate PA24): 0.094
FICI ([4]; lysin + meropenem, isolate WC-452): 0.125

From patent publication US20210324359A1, “USE OF GRAM-NEGATIVE LYSIN-ANTIMICROBIAL PEPTIDE (AMP) POLYPEPTIDE CONSTRUCTS IN TREATING ENDOCARDITIS” (priority 2020, published 2021)
